Source: patent publication US20180155692A1
Blank lines part the entries; values can stand above or below the substance they belong to.

Molecular target: activin-like kinase receptor 3 (ALK3) (human) (UniProt P36894)
Test: cell-based or functional assay

activin-like kinase receptor 3 (ALK3) (human), sequence (P36894 24-532): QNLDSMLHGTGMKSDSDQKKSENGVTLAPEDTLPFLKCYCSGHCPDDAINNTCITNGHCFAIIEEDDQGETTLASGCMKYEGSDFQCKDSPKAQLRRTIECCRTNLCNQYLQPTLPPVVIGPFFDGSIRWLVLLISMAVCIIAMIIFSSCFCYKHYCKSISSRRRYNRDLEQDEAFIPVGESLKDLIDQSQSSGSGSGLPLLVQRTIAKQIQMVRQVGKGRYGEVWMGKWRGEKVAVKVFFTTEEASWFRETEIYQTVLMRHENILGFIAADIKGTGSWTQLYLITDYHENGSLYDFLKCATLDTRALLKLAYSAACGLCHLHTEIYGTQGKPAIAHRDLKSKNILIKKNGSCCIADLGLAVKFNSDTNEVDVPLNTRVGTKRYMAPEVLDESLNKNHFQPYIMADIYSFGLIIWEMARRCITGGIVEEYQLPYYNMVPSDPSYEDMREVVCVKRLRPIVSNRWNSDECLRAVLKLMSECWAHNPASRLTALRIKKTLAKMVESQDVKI
Bone morphogenetic protein 7 (BMP-7), sequence (P18075 293-431 limits assumed): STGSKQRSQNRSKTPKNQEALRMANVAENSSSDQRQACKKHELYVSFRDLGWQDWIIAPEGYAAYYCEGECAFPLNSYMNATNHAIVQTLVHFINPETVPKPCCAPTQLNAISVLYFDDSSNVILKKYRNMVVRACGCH

C-peptide production on hNEPT, fold vs. t=0 (n=6): 198 fold
Substance: Bone morphogenetic protein 4 (BMP-4) (from UniProt P12644 293-408) (ligand)

BMP-7-mediated induction of C-peptide compared to t=0 (n=4), BMP-7 alone: 314 fold
BMP-7-mediated induction of C-peptide compared to t=0 (n=4), in the presence of dorsomorphin (inhibitor of SMAD1/5/8 phosphorylation): 108 fold
C-peptide induction on hNEPT, fold vs. t=0 (n=4, comparison with THR-123): 261 fold
C-peptide production on hNEPT, fold vs. t=0 (n=6, comparison with BMP-4): 156 fold
insulin expression by qRT-PCR in ALK3+-sorted cells vs. non-BMP-7 treated controls: 1000 fold
Substance: Bone morphogenetic protein 7 (BMP-7) (from UniProt P18075 293-431) (ligand)

C-peptide induction on hNEPT, fold vs. t=0 (n=4): 318 fold
Substance: THR-123 (peptide)
